The results in this text go back to PMC5928126 (Nature Communications, 2018).

As usually defined, the stoichiometry N is a count of units in the complex or per binding partner.

This data set concerns the molecule itself. Nature of the data set: cryo-EM structure.

B1: measles virus fusion glycoprotein (F) (natural protein)
chain: QIHWGNLSKIGVVGIGSASYKVMTRSSHQSLVIKLMPNITLLNNCTRVEIAEYRRLLRTVLEPIRDALNAMTQNIRPVQSVASSRRHKRFAGVVLAGAALGVATAAQITAGIALHQSMLNSQAIDNLRASLETTNQAIEAIRQAGQEMILAVQGVQDYINNELIPSMNQLSCDLIGQKLGLKLLRYYTEILSLFGPSLRDPISAEISIQALSYALGGDINKVLEKLGYSGGDLLGILESRGIKARITHVDTESYFIVLSIAYPTLSEIKGVIVHRLEGVSYNIGSQEWYTTVPKYVATQGYLISNFDESSCTFMPEGTVCSQNALYPMSPLLQECLRGSTKSCARTLVSGSFGNRFILSQGNLIANCASILCKCYTTGTIINQDPDKILTYIAADHCPVVEVNGVTIQVGSRRYPDAVYLHRIDLGPPISLERLDVGTNLGNAIAKLEDAKELLESSDQILRSMKGLSSTSIVYILIAVCLGGLIGIPALICCCRGRCNKKGEQVGMSRPGLKPDLTGTSKSYVRSL
notes: also called MeV F; pre-fusion F
B1: the “stoichiometry N” value was 3.
